According to patent publication US20260256870A1, “SKIN COMPOSITION” (Eaderm Co., Ltd., priority 2019, published 2026):

How the values were obtained:
[1] = system: human epidermal keratinocytes; assay: Colony formation assay using human epidermal keratinocytes; type: cell-based; conditions: Table 1
Description: To test whether COL17A1-mediated SCD maintains clonal proliferation of epidermal stem cell clones, the present inventors used a colony formation assay, which is an in vitro assay said to be the gold standard for assessing the self-renewal ability of epidermal stem cells, including cells in the tail epidermis.

COL17A1 = COL17A1 expression in human epidermal keratinocytes by high content imaging (HCS); type: cell-based; conditions: Table 1; human epidermal keratinocytes, 48 hours after addition of reagents, fluorescence intensity per cell
Experimental: The present inventors further searched for substances that induce or maintain the expression of COL17A1. Human epidermal keratinocytes were seeded in 384-well plates, cultured for 48 hours after addition of reagents, immunostained with an anti-COL17A1 antibody and a fluorescently labeled secondary antibody, and then the fluorescence intensity per cell was detected using a high content imaging system (HCS: High Content Screening). In addition to cell counting with DAPI, the expression level of COL17A1 was quantified.

B1: Epidermal Growth Factor (EGF): growth factor (protein, UniProt P01133 23-1207, looked up)
Pro-epidermal growth factor: PQHWSCPEGTLAGNGNSTCVGPAPFLIFSHGNSIFRIDTEGTNYEQLVVDAGVSVIMDFHYNEKRIYWVDLERQLLQRVFLNGSRQERVCNIEKNVSGMAINWINEEVIWSNQQEGIITVTDMKGNNSHILLSALKYPANVAVDPVERFIFWSSEVAGSLYRADLDGVGVKALLETSEKITAVSLDVLDKRLFWIQYNREGSNSLICSCDYDGGSVHISKHPTQHNLFAMSLFGDRIFYSTWKMKTIWIANKHTGKDMVRINLHSSFVPLGELKVVHPLAQPKAEDDTWEPEQKLCKLRKGNCSSTVCGQDLQSHLCMCAEGYALSRDRKYCEDVNECAFWNHGCTLGCKNTPGSYYCTCPVGFVLLPDGKRCHQLVSCPRNVSECSHDCVLTSEGPLCFCPEGSVLERDGKTCSGCSSPDNGGCSQLCVPLSPVSWECDCFPGYDLQLDEKSCAASGPQPFLLFANSQDIRHMHFDGTDYGTLLSQQMGMVYALDHDPVENKIYFAHTALKWIERANMDGSQRERLIEEGVDVPEGLAVDWIGRRFYWTDRGKSLIGRSDLNGKRSKIITKENISQPRGIAVHPMAKRLFWTDTGINPRIESSSLQGLGRLVIASSDLIWPSGITIDFLTDKLYWCDAKQSVIEMANLDGSKRRRLTQNDVGHPFAVAVFEDYVWFSDWAMPSVMRVNKRTGKDRVRLQGSMLKPSSLVVVHPLAKPGADPCLYQNGGCEHICKKRLGTAWCSCREGFMKASDGKTCLALDGHQLLAGGEVDLKNQVTPLDILSKTRVSEDNITESQHMLVAEIMVSDQDDCAPVGCSMYARCISEGEDATCQCLKGFAGDGKLCSDIDECEMGVPVCPPASSKCINTEGGYVCRCSEGYQGDGIHCLDIDECQLGEHSCGENASCTNTEGGYTCMCAGRLSEPGLICPDSTPPPHLREDDHHYSVRNSDSECPLSHDGYCLHDGVCMYIEALDKYACNCVVGYIGERCQYRDLKWWELRHAGHGQQQKVIVVAVCVVVLVMLLLLSLWGAHYYRTQKLLSKNPKNPYEESSRDVRSRRPADTEDGMSSCPQPWFVVIKEHQDLKNGGQPVAGEDGQAADGSMQPTSWRQEPQLCGMGTEQGCWIPVSSDKGSCPQVMERSFHMPSYGTQTLEGGVEKPHSLLSANPLWQQRALDPPHQMELTQ
modifications: Pro-epidermal growth factor
- Colony area (control ratio) [1]: ⊚⊚ (Two double circles (⊚⊚) in the control ratio of the colony number or colony area indicates an increase of 1.2-fold or more)
- Colony number (control ratio) [1]: ⊚⊚ (Two double circles (⊚⊚) in the control ratio of the colony number or colony area indicates an increase of 1.2-fold or more)
- COL17A1 expression level (control ratio) (COL17A1): ⊚ (one double circle (⊚) represents a 1.2-fold or greater increase)
